Results reported in PMC5339767, “A Novel Kleefstra Syndrome-associated Variant That Affects the Conserved TPLX Motif within the Ankyrin Repeat of EHMT1 Leads to Abnormal Protein Folding” (The Journal of Biological Chemistry, 2017).
Changes are numbered by the printed parent chain. Numbers in names are those of the source. Entries after “also recorded” stand apart in the source; their conditions may differ. One block for each molecule: values may come before it.

Tests used:
[1] = target: T1, EHMT1 WT (Homo sapiens, UniProt Q9H9B1); experiment: Trp fluorescence quenching titration of dimethylated histone H3 Lys9 peptide, WT EHMT1; assay type: binding; conditions: WT EHMT1 1 μM; stepwise addition of peptide (36.3 μM); 2 min equilibration; 20 °C; λEx 295 nm, λEm 350 nm; midpoint of logistic function with Hill slope; read-out: apparent affinity
T1 construct: WT and p.P809L EHMT1 variant ankyrin domains expressed from Escherichia coli; His6 (N); made in house; host or cells: E. coli BL21 (DE3), pET vector
T1 sequence (Q9H9B1 765-1001 limits assumed): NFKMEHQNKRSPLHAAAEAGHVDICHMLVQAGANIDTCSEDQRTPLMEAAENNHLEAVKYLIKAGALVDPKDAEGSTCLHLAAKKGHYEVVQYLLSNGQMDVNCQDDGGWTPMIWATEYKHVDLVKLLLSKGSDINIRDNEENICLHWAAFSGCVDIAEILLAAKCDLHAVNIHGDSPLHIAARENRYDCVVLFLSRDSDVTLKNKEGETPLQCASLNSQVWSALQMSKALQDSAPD
Description: (§1) Circular dichroism spectra (Fig. 7, left panel) were recorded to study the effect of the p.P809L mutation on the secondary structure of EHMT1 and confirm the in silico predictions that the p.P809L variant causes abnormal protein folding. The far UV CD spectrum of EHMT1 is dominated by the α-helical content of the protein showing two characteristic minima at 222 and 208 nm. […] Lastly, because the ankyrin repeat domain of the EHMT1 is critical for binding to methylated histones to regulate gene expression, we also studied the interaction of EHMT1 and the p.P809L mutation with its dimethylated target, the histone H3K9 peptide, by monitoring the Trp fluorescence emission at 350 nm after excitation at 295 nm (Fig. 9, left panel).
FIGURE 9. Interaction of EHMT1 with the dimethylated histone H3 Lys^9 peptide. […] The change in fluorescence intensity was followed at λEm = 350 nm after excitation at λEx = 295 nm. […]
For experimental purposes, we produced and purified an N-terminal His6-tagged recombinant form of WT and the p.P809L EHMT1 proteins using the pET vector system (Novagen). […] Spectra in the far UV range (200–260 nm) for WT and p.P809L EHMT1 were recorded on an Aviv Biomedical Model 420SF circular dichroism spectrometer. […] Fluorescence measurements were performed at 20 °C on a Horiba Jobin-Yvon Fluorolog 3 spectrofluorometer equipped with a Wavelength Electronics LF1-3751 temperature controller. […]

[2] = intrinsic protein fluorescence emission spectra; assay type: physicochemical; conditions: protein 1 μM, 20 °C; for λmax of fluorescence emission: excitation 280 and 295 nm, emission 310-440 nm
Description: as §1
FIGURE 8. Fluorescence emission spectra of WT EHMT1 and of p.P809L. Fluorescence emission spectra of WT EHMT1 (solid symbols and bars) and of p.P809L (open symbols and bars) were obtained. Spectra were recorded at 20 °C using a protein concentration of 1 μM. The excitation wavelengths (λEx) were 280 nm (circles; excitation of Trp and Tyr residues) and 295 nm (squares; selective excitation of Trp residues). […]
For experimental purposes, we produced and purified an N-terminal His6-tagged recombinant form of WT and the p.P809L EHMT1 proteins using the pET vector system (Novagen). […] Spectra in the far UV range (200–260 nm) for WT and p.P809L EHMT1 were recorded on an Aviv Biomedical Model 420SF circular dichroism spectrometer. […] Fluorescence measurements were performed at 20 °C on a Horiba Jobin-Yvon Fluorolog 3 spectrofluorometer equipped with a Wavelength Electronics LF1-3751 temperature controller. Fluorescence emission spectra of both proteins were recorded between 310 and 440 nm after excitation at 280 or 295 nm using a protein concentration of 1 μM in a 1-cm quartz cell. […] After equilibration for 2 min, the fluorescence signal was recorded and averaged for 20 s using an excitation wavelength of 295 nm for the selective excitation of Trp residues and an emission wavelength of 350 nm. […]

[3] = far UV circular dichroism spectroscopy; assay type: physicochemical; conditions: far UV CD 200–260 nm, 20 °C; Bestsel deconvolution; compared with WT
Description: as §1
FIGURE 7. Impact of the p. P809L mutation on secondary structure. Left panel, far UV CD spectra of WT EHMT1 (●) and of p.P809L (○) were recorded at 20 °C, corrected by the signal of the buffer, and converted to mean ellipticity per amino acid residue (ϴ^MRW). […]
For experimental purposes, we produced and purified an N-terminal His6-tagged recombinant form of WT and the p.P809L EHMT1 proteins using the pET vector system (Novagen). […] Spectra in the far UV range (200–260 nm) for WT and p.P809L EHMT1 were recorded on an Aviv Biomedical Model 420SF circular dichroism spectrometer. […]

[4] = system: CDK4; conditions: non-quantitative two-hybrid GAL4-based reporter assay; cited from earlier work
Excerpt: (§2) Nevertheless, our study is the first to describe how mutations in any of the TPLX motifs of the EHMT1 ankyrin domain affect protein folding to induce a moderate change in its affinity for the H3K9me2 peptide. Thus, it becomes important to compare this information to other, better characterized mutations in ankyrin repeats that are known to be pathogenic in humans. […] Thus, this type of mutation ( ...

[5] = p.P81L mutation in TPLX motif of p16; cited from earlier work
Excerpt: as §2

Kd [1]: 760 nM
Molecule: H3K9me2 peptide: dimethylated histone H3 Lys^9 peptide

B1: WT EHMT1: N-terminal His6-tagged recombinant form of WT EHMT1 (protein, UniProt Q9H9B1 2-1298, looked up)
Histone-lysine …: AAADAEAVPARGEPQQDCCVKTELLGEETPMAADEGSAEKQAGEAHMAADGETNGSCENSDASSHANAAKHTQDSARVNPQDGTNTLTRIAENGVSERDSEAAKQNHVTADDFVQTSVIGSNGYILNKPALQAQPLRTTSTLASSLPGHAAKTLPGGAGKGRTPSAFPQTPAAPPATLGEGSADTEDRKLPAPGADVKVHRARKTMPKSVVGLHAASKDPREVREARDHKEPKEEINKNISDFGRQQLLPPFPSLHQSLPQNQCYMATTKSQTACLPFVLAAAVSRKKKRRMGTYSLVPKKKTKVLKQRTVIEMFKSITHSTVGSKGEKDLGASSLHVNGESLEMDSDEDDSEELEEDDGHGAEQAAAFPTEDSRTSKESMSEADRAQKMDGESEEEQESVDTGEEEEGGDESDLSSESSIKKKFLKRKGKTDSPWIKPARKRRRRSRKKPSGALGSESYKSSAGSAEQTAPGDSTGYMEVSLDSLDLRVKGILSSQAEGLANGPDVLETDGLQEVPLCSCRMETPKSREITTLANNQCMATESVDHELGRCTNSVVKYELMRPSNKAPLLVLCEDHRGRMVKHQCCPGCGYFCTAGNFMECQPESSISHRFHKDCASRVNNASYCPHCGEESSKAKEVTIAKADTTSTVTPVPGQEKGSALEGRADTTTGSAAGPPLSEDDKLQGAASHVPEGFDPTGPAGLGRPTPGLSQGPGKETLESALIALDSEKPKKLRFHPKQLYFSARQGELQKVLLMLVDGIDPNFKMEHQNKRSPLHAAAEAGHVDICHMLVQAGANIDTCSEDQRTPLMEAAENNHLEAVKYLIKAGALVDPKDAEGSTCLHLAAKKGHYEVVQYLLSNGQMDVNCQDDGGWTPMIWATEYKHVDLVKLLLSKGSDINIRDNEENICLHWAAFSGCVDIAEILLAAKCDLHAVNIHGDSPLHIAARENRYDCVVLFLSRDSDVTLKNKEGETPLQCASLNSQVWSALQMSKALQDSAPDRPSPVERIVSRDIARGYERIPIPCVNAVDSEPCPSNYKYVSQNCVTSPMNIDRNITHLQYCVCIDDCSSSNCMCGQLSMRCWYDKDGRLLPEFNMAEPPLIFECNHACSCWRNCRNRVVQNGLRARLQLYRTRDMGWGVRSLQDIPPGTFVCEYVGELISDSEADVREEDSYLFDLDNKDGEVYCIDARFYGNVSRFINHHCEPNLVPVRVFMAHQDLRFPRIAFFSTRLIEAGEQLGFDYGERFWDIKGKLFSCRCGSPKCRHSSAALAQRQASAAQEAQEDGLPDTSSAAAADPL
modifications: N-terminal His6 tag
λmax of fluorescence emission [2]: ~350 nm

B2: p.P809L: N-terminal His6-tagged recombinant p.P809L EHMT1 variant (c.2426C>T) (protein, UniProt Q9H9B1 2-1298, looked up, variant P809L)
Histone-lysine …: B1 Histone-lysine … with P808L
modifications: N-terminal His6 tag
fluorescence emission (intensity) ([2]; compared with wild type protein): decrease of the fluorescence emission
λmax of fluorescence emission [2]: 347 nm
α-helical content [3]: reduced α-helical content; also recorded: decrease in the α-helical content

B3: p.P81L p16: p.P81L mutation in the TPLX motif within the ankyrin repeat of the tumor suppressor p16 (protein, UniProt P42771 1-156, looked up, variant P81L)
Cyclin-dependent kinase …: MEPAAGSSMEPSADWLATAAARGRVEEVRALLEAGALPNAPNSYGRRPIQVMMMGSARVAELLLLHGAEPNCADPATLTRLVHDAAREGFLDTLVVLHRAGARLDVRDAWGRLPVDLAEELGHRDVARYLRAAAGGTRGSNHARIDAAEGPSDIPD
interaction with CDK4 [4]: impaired interaction with CDK4
secondary structure [5]: secondary structure alterations
